Experimental data as given in patent US7122633 (Pfizer, dated 2006).

Molecular target: T1, NKSF larger subunit, 40 kD (human, UniProt P29460 23-328)
T1 construct: also called 40 kD subunit; NKSF heavy chain
T1 sequence: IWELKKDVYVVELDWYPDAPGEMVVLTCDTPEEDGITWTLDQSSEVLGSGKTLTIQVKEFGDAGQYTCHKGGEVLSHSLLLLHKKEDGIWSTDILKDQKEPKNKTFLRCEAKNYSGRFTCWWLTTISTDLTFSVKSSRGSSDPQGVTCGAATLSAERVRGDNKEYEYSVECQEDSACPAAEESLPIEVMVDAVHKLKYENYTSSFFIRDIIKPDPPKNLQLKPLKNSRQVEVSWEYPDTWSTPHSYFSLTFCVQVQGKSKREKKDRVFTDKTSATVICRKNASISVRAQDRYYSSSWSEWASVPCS
Assay: SDS-PAGE of the iodinated 70 kD species, non-reduced against reduced with β-mercaptoethanol
Experimental: SDS-PAGE was performed according to the method of Laemmli [Laemmli, U. K., *Nature*, 227:680–685 (1970)] on 10% acrylamide slab gels (0.75 mm thickness). After electrophoresis the gels were either stained by the silver-nitrate method using a silver staining reagents [BioRad] or cut into 2 mm slices and eluted in 0.5 ml RPMI medium for 4 hours at 24° C. and assayed for NKSF activity. Apparent molecular weight was determined with protein standards, […] (94 kD), bovine serum albumin (67 kD), ovalbumin (43 kD), carbonic anhydrase (30 kD), soybean trypsin inhibitor (20 kD) and lactalbumin (14.4 kD).
The 70 kD species was eluted from the gel, iodinated using chloramine T [Sigma, St. Louis, Mo.] and rerun on a second SDS gel after boiling for two minutes in the presence of the reducing agent, β-mercaptoethanol (10%). […] Alternatively, NKSF may be a dimer formed by multiples of the larger or smaller subunits. The reduction of the native 70 kD NKSF appeared to destroy all of its ability to induce peripheral blood lymphocyte production of gamma interferon.

- binding result: binds
B1: NKSF smaller subunit, 30-35 kD (other)
chain: RNLPVATPDPGMFPCLHHSQNLLRAVSNMLQKARQTLEFYPCTSEEIDHEDITKDKTSTVEACLPLELTKNESCLNSRETSFITNGSCLASRKTSFMMALCLSSIYEDLKMYQVEFKTMNAKLLMDPKRQIFLDQNMLAVIDELMQALNFNSETVPQKSSLEEPDFYKTKIKLCILLHAFRIRAVTIDRVMSYLNAS
notes: also called 30 kD subunit; 30 kD (smaller version)
